Assay results published in patent US20200317802A1 (Merck KGaA, published 2020).
Where a chain is given by its changes, count along the chain named. One block for each binder: values may come before it.

Legend:
[1] = molecular target: T1, cynomolgus monkey recombinant ADAMTS5 (cynomolgus monkey, UniProt Q9UNA0 262-622 (human entry), limits assumed); assay: SPR off-rate, Biacore T100, ADAMTS5 immobilised, experiment 1
T1 construct: in house, HEK293, His tag in the entry; also called cyno ADAMTS5
T1 chain: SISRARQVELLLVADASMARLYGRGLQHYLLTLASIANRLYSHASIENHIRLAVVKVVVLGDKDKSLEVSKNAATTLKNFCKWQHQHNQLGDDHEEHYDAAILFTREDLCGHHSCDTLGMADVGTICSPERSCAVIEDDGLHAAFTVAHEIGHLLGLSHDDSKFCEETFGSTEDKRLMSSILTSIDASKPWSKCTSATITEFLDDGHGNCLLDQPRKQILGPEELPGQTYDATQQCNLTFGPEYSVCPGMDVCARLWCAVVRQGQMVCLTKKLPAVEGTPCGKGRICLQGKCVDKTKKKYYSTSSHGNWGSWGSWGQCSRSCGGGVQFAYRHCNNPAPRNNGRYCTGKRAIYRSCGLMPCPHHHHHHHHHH
Description: (§1) Species cross-reactivity was initially evaluated via SPR-based off-rate analysis on a Biacore T100 instrument. Nanobodies were tested for binding to human, cynomolgus monkey (“cyno”), guinea pig, mouse, and bovine ADAMTS5. To this end, recombinant ADAMTS5 was immobilized onto a CM5 chip via amine coupling using EDC and NHS. Purified Nanobodies were injected for 2 minutes at a concentration of 100 nM and allowed to dissociate for 15 min at a flow rate of 45 ul/min. Off-rate for each individual Nanobody was determined by fitting a 1:1 interaction model (Langmuir model) onto the individual dissociation curves using the BIA Evaluation software. As a reference, off-rates on human ADAMTS5 were determined in each experiment.

[2] = molecular target: T2, guinea pig recombinant ADAMTS5 (guinea pig); assay: as above
T2 construct: in house, HEK293, His tag in the entry
T2 chain: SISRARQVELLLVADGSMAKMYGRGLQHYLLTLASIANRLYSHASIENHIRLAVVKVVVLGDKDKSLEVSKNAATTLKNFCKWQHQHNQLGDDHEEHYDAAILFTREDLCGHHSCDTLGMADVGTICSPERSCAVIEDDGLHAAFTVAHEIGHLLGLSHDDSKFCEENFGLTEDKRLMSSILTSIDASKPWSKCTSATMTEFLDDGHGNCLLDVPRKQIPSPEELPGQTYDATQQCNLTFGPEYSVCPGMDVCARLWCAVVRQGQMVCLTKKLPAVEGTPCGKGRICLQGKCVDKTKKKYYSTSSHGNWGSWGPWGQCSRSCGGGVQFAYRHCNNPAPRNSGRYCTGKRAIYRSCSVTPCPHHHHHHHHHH
Description: as §1

[3] = molecular target: T3, recombinant human ADAMTS5 (R&D Systems cat #2198-AD) (human, UniProt Q9UNA0 262-622, limits assumed); assay: SPR off-rate, Biacore T100, ADAMTS5 immobilised, experiment 3
T3 construct: bought protein
T3 sequence: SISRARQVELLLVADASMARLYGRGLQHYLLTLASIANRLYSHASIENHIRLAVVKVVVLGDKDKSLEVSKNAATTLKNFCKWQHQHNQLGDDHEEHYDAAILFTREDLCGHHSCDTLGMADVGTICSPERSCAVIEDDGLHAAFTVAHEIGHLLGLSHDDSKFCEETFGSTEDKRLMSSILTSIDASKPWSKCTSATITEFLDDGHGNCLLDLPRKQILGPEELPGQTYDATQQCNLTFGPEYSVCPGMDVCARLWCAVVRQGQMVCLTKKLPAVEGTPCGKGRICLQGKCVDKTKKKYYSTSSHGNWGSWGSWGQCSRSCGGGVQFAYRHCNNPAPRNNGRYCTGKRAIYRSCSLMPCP
Description: as §1

[4] = molecular target: T3, recombinant human ADAMTS5 (R&D Systems …); assay: SPR kinetics, Biacore T100, ADAMTS5 immobilised
Description: (§2) For referencing, affinity for human ADAMTS5 was also determined. Thereto, rat and human ADAMTS5 were immobilized onto a CM5 chip via amine coupling, using EDC and NHS chemistry. Purified Nanobodies were injected for 2 minutes at different concentrations (between 1 and 1000 nM) and allowed to dissociate for 25 min at a flow rate of 45 μl/min. The kinetic constants were calculated from the sensorgrams using the BIAEvaluation software (1:1 interaction).

rat recombinant ADAMTS5 = molecular target: T4, rat recombinant ADAMTS5 (rat, UniProt Q9R001 262-618 (mouse entry)); assay: SPR kinetics, Biacore T100, ADAMTS5 immobilised
T4 construct: in house, HEK293, His tag in the entry
T4 chain: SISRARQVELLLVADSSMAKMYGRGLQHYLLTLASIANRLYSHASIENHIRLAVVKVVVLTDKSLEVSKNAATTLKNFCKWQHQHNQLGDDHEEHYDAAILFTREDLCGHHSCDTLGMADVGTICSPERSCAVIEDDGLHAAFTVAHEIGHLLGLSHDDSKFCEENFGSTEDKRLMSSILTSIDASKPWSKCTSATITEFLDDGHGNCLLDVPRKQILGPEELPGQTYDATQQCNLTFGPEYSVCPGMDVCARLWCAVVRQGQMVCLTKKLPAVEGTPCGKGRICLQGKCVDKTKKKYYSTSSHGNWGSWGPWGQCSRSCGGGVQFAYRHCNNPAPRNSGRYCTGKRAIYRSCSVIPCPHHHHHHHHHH
Description: as §2

- koff [1]: 0.0001 s⁻¹
- koff [2]: 0.00012 s⁻¹
- koff [3]: 0.00031 s⁻¹
- Kd [4]: 1.9 nM
- Kd (rat recombinant ADAMTS5): 1 nM
B1: Nanobody 2A12 (VHH)
VHH: EVQLVESGGGLVQAGGSLRLSCAASGRTFSSYAMGWFRQAPGKERDFVAGISRSAGRTYYVDSVKGRFTISRDSAKNTVYLQMNRLKPEDTAVYYCAADLDPNRIFSRDEAAYWGQGTLVTVSS
notes: tagged as tested (anti-Flag detection, IMAC); also called 02A12

- koff [1]: 2.2e-05 s⁻¹
- koff [2]: 3.4e-05 s⁻¹
- koff [3]: 9.7e-05 s⁻¹
- Kd [4]: 1.6 nM
- Kd (rat recombinant ADAMTS5): 0.7 nM
B2: Nanobody 2F03 (VHH)
VHH: B1 VHH with F29V, Q39L, D46E, G56E, V64L, Q82H, D109E, A111Y
notes: tagged as tested (anti-Flag detection, IMAC); also called 02F03; 2F3
